This data set in a line: protein stability index of a GFP-peptide fusion (GPS, HEK-293T) (PSI 1-6); higher = more stable.
Setting [1] is: treatment: DMSO, c terminus: a fixed tail appended.
Setting [2] is: treatment: MLN4924 1 uM, 8 h, c terminus: a fixed tail appended.

This passage reports protein stability index results from the supplement of paper PMC10567573.

± gives the standard deviation.
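Also: 24-mer peptide tiles fused after GFP, lentivirally expressed, FACS-sorted into six equal bins by GFP/DsRed ratio, decoded by Illumina sequencing, PSI is the read-weighted mean bin number.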

In the case of LKVRSHDPEEAIRHDVIVSIVTAA [PDS5B], the protein stability index under setting [1] was 2.43 ± 0.19 and the protein stability index under setting [2] worked out at 2.35 ± 0.27.

Take QVMVSGPNLNETSIVSGGYGGSGD [ARFIP2]: the protein stability index worked out at 4.24 ± 0.29 under setting [1] and 4.41 ± 0.41 under setting [2].

As to RWETSSWSECSRTCGEGYQFRVVR [ADAMTSL2], the protein stability index was 2.5 ± 0.84 under setting [1] and 2.21 ± 0.35 under setting [2].

Take ERLDELQDKSESLSDNATAFSNRS [VAMP4]: the protein stability index is 5.44 ± 0.24 under setting [1] and 5.34 ± 0.088 under setting [2]. For the sequence NQNLSNRPSFNRTPIPWLSSGEPV [MYOZ1], the protein stability index came out at 3.43 ± 0.38 under setting [1] and 3.5 ± 0.15 under setting [2].

As for SGLSFITFICYVASSASAFLTAPL [CMTM3], the protein stability index worked out at 3.15 ± 0.49 under setting [1] and 2.96 ± 0.3 under setting [2]. On to SYDCTVKLWDPVDGSVVRDFEHRP [WDR88], for which the protein stability index by setting is: under setting [1], 3.44 ± 0.22; under setting [2], 3.62 ± 0.3. Take EAAAAEEGLRELQRSRRLCHEDVE [DAPK3]: the protein stability index by setting is: under setting [1], 5.29 ± 0.23; under setting [2], 5.4 ± 0.45.

For YRQPIPVQELVLEDLQDGDVRMGG [NET1], the protein stability index amounted to 4.4 ± 0.29 under setting [1] and 4.56 ± 0.34 under setting [2]. Consider KSNGRGGSQAGGSGSAGQYGSDQQ [MYOZ1], for which the protein stability index reads like this: under setting [1], 5.49 ± 0.23; under setting [2], 5.4 ± 0.14. Take TWKSGKQTMLSHYRPFYVNKGNGI [TRIM29]: the protein stability index reads like this: under setting [1], 2.36 ± 0.41; under setting [2], 2.4 ± 0.2. In the case of FDVETRHVFIGDHSGQVTILKLEQ [WDFY2], the protein stability index turned out to be 2.2 ± 0.44 under setting [1] and 2.43 ± 0.33 under setting [2]. For GRRQRKSEKRRDPPNGPNLPMATV [WASL] the same measures were 4.7 ± 0.37 and 4.47 ± 0.13.

YEETGFYEIEIQAEDGGAYLATAK [PCDHGA10] gave a protein stability index under setting [1] of 3.57 ± 0.14 and a protein stability index under setting [2] of 3.72 ± 0.29. For YKCAECGKSFCHSTHLTVHRRIHT [ZNF8] the same measures were 3.9 ± 0.18 and 4.42 ± 0.16. With AASLVTMGIVNLNIHMNFTHICRS [SLC2A12], the protein stability index was determined as 3.46 ± 0.27 under setting [1] and 3.16 ± 0.21 under setting [2]. STGYCWCVLVDTGRPIPGTSTRYE [SMOC2] gave a protein stability index under setting [1] of 2.64 ± 1.8 and a protein stability index under setting [2] of 2.12 ± 0.32. In turn, LPRRPRKGSSELGFPRVAPEDEVI [RNF208] yielded a protein stability index under setting [1] of 4.37 ± 0.23 and a protein stability index under setting [2] of 4.33 ± 0.15. Turning to PRGKPPLNTRSQAPLLRWVLTLSF [HMOX1], the protein stability index reads like this: under setting [1], 2.81 ± 0.28; under setting [2], 3.1 ± 0.61.

Consider DNALWERDRNLLQEDKALWEEEKA [CCDC70], for which the protein stability index is 5.57 ± 0.32 under setting [1] and 5.05 ± 0.31 under setting [2].

With FISQVTVLKYFSHYMEENLMDGGD [PLK2], the protein stability index under setting [1] was determined as 2.46 ± 0.69 and the protein stability index under setting [2] stood at 2.3 ± 0.49. Turning to PQVLSQEFTELLKVMIHPDPERRP [WEE1], the protein stability index by setting is: under setting [1], 3.45 ± 0.17; under setting [2], 3.43 ± 0.16. As to RIPTCHDKPGTTQIVQLTQQVDTN [DENND6A], the protein stability index under setting [1] is 4.6 ± 0.14 and the protein stability index under setting [2] was found to be 4.59 ± 0.14. The corresponding values for PTQQDVLRTRVKTTGIVETHFTFK [GNAI1] are 3.05 ± 0.42 and 3.51 ± 0.37. Regarding ARRRQSAGPWPRPKGSLSMGPAPR [RASAL3], the protein stability index stood at 3.81 ± 0.25 under setting [1] and 4.03 ± 0.33 under setting [2]. As to ESPFSRKLDLWSFLDIPRSRLVKY [NET1], the protein stability index under setting [1] was 2.06 ± 0.14 and the protein stability index under setting [2] was 2.15 ± 0.21. VFAHCKEAPSTASSTPDSTEGGND [RTN2] yielded a protein stability index under setting [1] of 5.42 ± 0.33 and a protein stability index under setting [2] of 5.37 ± 0.37. On to LLKHPNIVRLHDSISEEGFHYLVF [CAMK2D], for which the protein stability index under setting [1] is 2.42 ± 0.32 and the protein stability index under setting [2] worked out at 2.2 ± 0.18.

Consider KYKRRRFQKTKNLLTGETEADPEM [CLPTM1], for which the protein stability index runs as follows: under setting [1], 4.83 ± 0.28; under setting [2], 4.57 ± 0.4.

As for PNLSLASEDEEEYESGYAFLPDLL [SMG5], the protein stability index turned out to be 4.32 ± 0.2 under setting [1] and 4.47 ± 0.15 under setting [2].

Consider HRELLRLESRIRDVHELFLQMAVL [STX11], for which the protein stability index worked out at 2.49 ± 0.33 under setting [1] and 2.4 ± 0.28 under setting [2]. With EKKVLEAGMGKVTSASFGEESTPG [HDAC6], the protein stability index was 5.21 ± 0.23 under setting [1] and 5.18 ± 0.32 under setting [2]. Take NTPMEETVRAMTHVINQGMAMYWG [KCNAB2]: the protein stability index runs as follows: under setting [1], 2.92 ± 0.39; under setting [2], 3.13 ± 0.96. The corresponding values for QIFFGRRKDMIAEKLAPSEITEEL [ZNF396] are 3.85 ± 0.14 and 3.74 ± 0.13.

For HCRENAHDKIRPISSIGQVQSYME [SPACA9], the protein stability index reads like this: under setting [1], 3.44 ± 0.22; under setting [2], 3.29 ± 0.26. For LSARDHQKLEREARICRLLKHPNI [CAMK2A] the same measures were 2.98 ± 0.069 and 3.01 ± 0.26. For PLIIAARNGHAKVVRLLLEHYRVQ [FEM1B] the same measures were 2.36 ± 0.36 and 2.39 ± 0.2. Consider VNGSWYIQDLCEMLGKYGSSLEFT [CASP6], for which the protein stability index was found to be 2.95 ± 0.65 under setting [1] and 2.67 ± 0.55 under setting [2].

For the sequence LRGPRERAPSERSGPAASEHSHRS [DVL3], the protein stability index is, setting by setting: under setting [1], 5.14 ± 0.3; under setting [2], 5.34 ± 0.057. The corresponding values for ARDTVQVELIPEKKGLFLKHVEYE [SNX8] are 3.65 ± 0.39 and 3.73 ± 0.26. For PTHTPRPADFSLGSLPGPGQTSGA [VENTX] the same measures were 4.44 ± 0.18 and 4.5 ± 0.2. The corresponding values for EPKNYGSYSTQASAAAATAELLKK [SCAMP3] are 4.84 ± 0.18 and 4.83 ± 0.16.

On to SHEDVCVFKCSVSRETECSRVGKQ [CARM1], for which the protein stability index runs as follows: under setting [1], 4.11 ± 0.25; under setting [2], 4.12 ± 0.31.

For IDYGANVNQPNNNGFTPLHFAAAS [ANKRD44], the protein stability index was found to be 3.1 ± 0.19 under setting [1] and 3 ± 0.26 under setting [2].

As for LLPESGIVADIELENVLDPDSFYE [TFE3], the protein stability index reads like this: under setting [1], 4.47 ± 0.3; under setting [2], 4.76 ± 0.49. With FSGHFLCTSSWDKNLKIWNVHTGE [WDR88], the protein stability index came out at 2.71 ± 0.71 under setting [1] and 2.55 ± 0.15 under setting [2]. With PLPKRVAKVPRPPSTLLPTPEEQG [FOXJ1], the protein stability index is, setting by setting: under setting [1], 4.97 ± 0.29; under setting [2], 4.82 ± 0.34.

On to GVWHQMGTDGYMPRELASMSLVLH [KLHDC10], for which the protein stability index worked out at 2.08 ± 0.21 under setting [1] and 2.06 ± 0.27 under setting [2]. YSPRRSRGSPRYSPRHSRSRSRT [SRSF1]: the protein stability index is, setting by setting: (treatment: DMSO, c terminus: native) 4.18 ± 0.35; (treatment: MLN4924 1 uM, 8 h, c terminus: native) 4.49 ± 0.26. With LMQVHASRSNNMGIVGGFTQMIRE [SLC25A25], the protein stability index under setting [1] is 2.75 ± 0.21 and the protein stability index under setting [2] turned out to be 2.94 ± 0.24.

For FYLVYFKIQASGETPNSLNTTVIP [LYSMD4], the protein stability index under setting [1] was 2.9 ± 0.04. Consider EDKIFPVPEEPPVKKLMRTSTPPP [ZBED1], for which the protein stability index stood at 4.8 ± 0.27 under setting [1] and 4.61 ± 0.34 under setting [2]. Sequence IEVNGENVEDASHEEVVEKVKKSG [PDZK1] displayed a protein stability index under setting [1] of 5.63 ± 0.16 and a protein stability index under setting [2] of 5.34 ± 0.38.

Take LLLENGAGINTHSNEFKESALTLA [ANKRD17]: the protein stability index reads like this: under setting [1], 2.32 ± 0.54; under setting [2], 2.76 ± 0.6. Turning to SRSQNTDMVQKSVSKTLPSTWSDP [CLINT1], the protein stability index runs as follows: under setting [1], 3.87 ± 0.28; under setting [2], 3.98 ± 0.23. Consider WVHKHFTEDIQTRQYRSIEVLIGA [SRPK2], for which the protein stability index is, setting by setting: under setting [1], 2.37 ± 0.18; under setting [2], 2.27 ± 0.41. Consider DTGVFAVVNSHSLSLLGKLTISAA [SLC22A15], for which the protein stability index was determined as 2.5 ± 0.42 under setting [1] and 2.33 ± 0.53 under setting [2]. Consider VPTCSMCKVFGIHKACEVAPLQSV [TRIM63], for which the protein stability index by setting is: under setting [1], 2.64 ± 0.32; under setting [2], 2.73 ± 0.14. On to DVADDFENYHKLRRSSSKCIHDHH [NETO1], for which the protein stability index worked out at 3.85 ± 0.15 under setting [1] and 4.15 ± 0.11 under setting [2]. For the sequence VDKDQPSILNSCEDPVPGMLFFLP [FBXO34], the protein stability index runs as follows: under setting [1], 3.32 ± 0.39; under setting [2], 3.02 ± 0.36. For SCSEICYTFIIVPKMLVDLLSQKK [OR10K2] the same measures were 2.91 ± 0.77 and 2.71 ± 0.79. The corresponding values for IDSHLLLSVLPQLEFKLKSNDNEE [PDS5B] are 3.32 ± 0.27 and 3.09 ± 0.096. In turn, GKSPDTNYLFMGDYVDRGYYSVET [PPP2CA] had a protein stability index under setting [1] of 2.73 ± 0.28 and a protein stability index under setting [2] of 2.87 ± 0.17. The sequence GLVTAALHMVIVAAFTWAFTLFFE [KMT2E] showed a protein stability index under setting [1] of 1.96 ± 0.3 and a protein stability index under setting [2] of 1.83 ± 0.29. Take RQDADAWTLYKILDSCKQLTLAQG [SMG5]: the protein stability index is 2.29 ± 0.26 under setting [1] and 2.32 ± 0.083 under setting [2]. GPLDIWAVVKPGNTKEKIAFFASH [FBXO34] came in with a protein stability index under setting [1] of 2.45 ± 0.27 and a protein stability index under setting [2] of 2.78 ± 0.21. As to IELQAQHSMRNSLESTLAETEARY [KRT36], the protein stability index under setting [1] was determined as 4.38 ± 0.15 and the protein stability index under setting [2] amounted to 4.23 ± 0.23. Consider RWASAPPLYTLIDVLKYSYVRLVC [ZSWIM9], for which the protein stability index by setting is: under setting [1], 2.6 ± 0.45; under setting [2], 3.01 ± 0.74. On to DCGLNLKQRGYFFLDERLYCESHA [PDLIM4], for which the protein stability index is, setting by setting: under setting [1], 2.43 ± 0.17; under setting [2], 2.3 ± 0.44.

For SAASSAAAGEPLECPTCGHSYNVT [RNF208], the protein stability index is, setting by setting: under setting [1], 4.87 ± 0.27; under setting [2], 4.77 ± 0.24. IGKLLYLEDFFVMSDYRGFGIGSE [SAT1]: the protein stability index runs as follows: under setting [1], 2.85 ± 0.33; under setting [2], 2.9 ± 0.81. RKSMLDAGPDSWGSDAEQSTSGQP [LCOR]: the protein stability index worked out at 5.21 ± 0.091 under setting [1] and 5.15 ± 0.24 under setting [2].
